The experiment has as its target PD-1-mFc (人PD-1胞外区加Fc纯化标签) (human) (UniProt Q15116). In words: ELISA of the subclone's supernatant on plate-coated PD-1 antigen. A general note: In an ELISA, binding on a coated surface is turned into a signal by an enzyme label.
UniProt Q15116, sequence (Q15116 25-170): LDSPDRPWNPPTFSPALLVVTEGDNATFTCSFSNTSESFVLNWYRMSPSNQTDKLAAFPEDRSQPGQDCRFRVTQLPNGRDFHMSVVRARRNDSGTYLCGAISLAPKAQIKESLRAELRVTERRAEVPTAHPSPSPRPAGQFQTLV

B1: 抗PD-1鼠源单克隆抗体 (阳性克隆2G8-1N8) (antibody, V domains shown)
VH: EVKLVESGGGLVKPGGSLKLSCAASGFTFSSYGMSWVRQTPEKRLEWVATISGGGSYTYYPDSVKGRFTISRDNAKNNLYLQMSSLRSEDTALYYCASRFGEAWFAYWGQGTLVTVSA
VL: DIKMTQSPSSMYASLGERVTITCKASQDINSYLSWFQQKPGKSPKTLIYRANRLVDGVPSRFSGSGSGQDYSLTISSLEYEDMGIYYCLQYDEFPLTFGAGTKLELK
B1 gave an OD值 of 1.02 OD.

The record behind these values is CN110563849A.
